Data from article PMC10471779, “Antibody-mediated neutralization of galectin-3 as a strategy for the treatment of systemic sclerosis” (Nature Communications, 2023).

Tests used:
Details in all cases: both partners purified
human galectin-14 = target: T1, human galectin-14 (Homo sapiens, UniProt Q8TCE9); assay: ELISA; dose-response binding ELISA, IgG 0.0009 to 500 nM on immobilised hGal-3-FL and mGal-3-FL (hGal-14 in Supplementary Fig. 7b); detection by anti-hFab-HRP
T1 construct: galectin-14, human; also called hGal-14; Gal-14; source: bought: Novus Biologicals NBP1-50082
T1 sequence (Q8TCE9 whole entry): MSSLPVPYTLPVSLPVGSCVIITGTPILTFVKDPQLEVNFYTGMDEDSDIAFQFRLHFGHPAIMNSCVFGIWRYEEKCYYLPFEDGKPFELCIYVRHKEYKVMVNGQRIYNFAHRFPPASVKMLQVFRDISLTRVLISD

[1] = target: T2, recombinant human galectin-3, full length, His-tagged (hGal-3-FL-His Nter) (Homo sapiens, UniProt P17931); assay: as above
T2 construct: galectin-3, human, full length; the SPR methods say only recombinant Gal-3 (Novalix); also called FL hGal-3; FL-Gal-3; source: recombinant, produced by Novalix (Illkirch, France); not shown: His, N-terminal, kept
T2 sequence (P17931 whole entry): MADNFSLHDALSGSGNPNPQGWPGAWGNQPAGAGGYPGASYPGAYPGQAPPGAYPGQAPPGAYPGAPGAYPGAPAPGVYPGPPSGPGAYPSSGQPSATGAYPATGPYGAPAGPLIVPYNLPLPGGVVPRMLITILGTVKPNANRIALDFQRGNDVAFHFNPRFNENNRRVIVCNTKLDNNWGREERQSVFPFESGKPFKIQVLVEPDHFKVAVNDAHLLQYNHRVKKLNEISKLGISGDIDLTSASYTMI

[2] = target: T3, recombinant mouse galectin-3, full length, His-tagged (mGal-3-FL-His Nter) (Mus musculus, UniProt P16110); assay: as above
T3 construct: galectin-3, mouse, full length; source: recombinant, produced by Novalix (Illkirch, France); not shown: His, N-terminal, kept
T3 sequence (P16110 whole entry): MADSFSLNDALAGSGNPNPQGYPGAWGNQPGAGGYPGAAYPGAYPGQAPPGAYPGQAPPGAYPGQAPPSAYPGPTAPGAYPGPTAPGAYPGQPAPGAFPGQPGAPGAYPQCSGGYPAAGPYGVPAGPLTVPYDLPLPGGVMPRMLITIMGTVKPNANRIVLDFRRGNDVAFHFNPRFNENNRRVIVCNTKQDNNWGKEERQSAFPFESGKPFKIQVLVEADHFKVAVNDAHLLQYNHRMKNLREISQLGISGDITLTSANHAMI

[3] = target: T3, recombinant mouse galectin-3, full …; assay: SPR; Biacore T-200, mAb captured on anti-human Fc CM5 surface, Gal-3 0.5 to 50 nM injected, single-cycle kinetics, HBS-P (10 mM HEPES, 150 mM NaCl, 0.05% P20), 25 C, 1:1 Langmuir fit
[4] = target: T4, recombinant human galectin-3 carbohydrate recognition domain, His-tagged (hGal-3-CRD-His Nter) (human, UniProt P17931); assay: ELISA; competition ELISA: hGal-3-CRD coated at 1 ug/mL, IgG 0.0006 to 780 nM for 1 h, washed, then asialofetuin at 8 ug/mL for 30 min; bound asialofetuin detected by HRP-labelled anti-asialofetuin antibody
T4 construct: galectin-3, human, carbohydrate recognition domain; also called CRD of hGal-3; source: recombinant, produced by Novalix (Illkirch, France); not shown: His, N-terminal, kept
T4 sequence (P17931 114-250): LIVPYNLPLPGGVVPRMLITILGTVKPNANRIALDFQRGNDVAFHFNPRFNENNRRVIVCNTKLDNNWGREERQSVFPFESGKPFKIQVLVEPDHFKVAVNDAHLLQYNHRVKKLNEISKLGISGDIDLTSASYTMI

[5] = target: T5, recombinant dog galectin-3 carbohydrate recognition domain (Canis lupus familiaris, UniProt P38486); assay: SPR; Biacore T-200; mAb captured (400-680 RU) on a CM5 chip with immobilised anti-human Fc mAb; Gal-3 0.5-50 nM injected, single-cycle kinetics, 210 s association, 600 s dissociation, 30 uL/min; HBS-P (10 mM HEPES, 150 mM NaCl, 0.05% P20), 25 °C; 1:1 Langmuir fit; duplicates
T5 construct: galectin-3 (Gal-3), dog, carbohydrate recognition domain; also called dog Gal-3 (CRD); source: recombinant, Novalix

[6] = target: T6, recombinant human galectin-3, full-length (Homo sapiens, UniProt P17931); assay: as above
T6 construct: galectin-3 (Gal-3), human, full-length; the His tag is named for the Novalix protein in the ELISA methods; the SPR methods say only 'recombinant Gal-3 from multiple species (Novalix)'; also called human Gal-3 (FL); hGal-3 (FL); source: recombinant, produced by Novalix
T6 sequence (P17931 whole entry): as the sequence (P17931 whole entry) above

[7] = target: T7, recombinant mouse galectin-3, full-length (Mus musculus, UniProt P16110); assay: as above
T7 construct: galectin-3 (Gal-3), mouse, full-length; the His tag is named for the Novalix protein in the ELISA methods; the SPR methods say only 'recombinant Gal-3 from multiple species (Novalix)'; also called mouse Gal-3 (FL); mGal-3 (FL); source: recombinant, produced by Novalix
T7 sequence (P16110 whole entry): as the sequence (P16110 whole entry) above

[8] = target: T8, recombinant rat galectin-3 carbohydrate recognition domain (Rattus norvegicus, UniProt P08699); assay: as above
T8 construct: galectin-3 (Gal-3), rat, carbohydrate recognition domain; also called rat Gal-3 (CRD); source: recombinant, Novalix

[9] = target: T9, recombinant human galectin-3 carbohydrate recognition domain (Homo sapiens, UniProt P17931); assay: as above
T9 construct: galectin-3 (Gal-3), human, carbohydrate recognition domain; the His tag is named in the ELISA methods, not in the SPR methods; also called hGal-3 (CRD); hGal-3-CRD-His Nter; source: recombinant, produced by Novalix

EC50 (human galectin-14) | EC50 [1] | EC50 [2] | Kd [3] | IC50 [4] | Kd [5] | koff [5] | kon [5] | Kd [6] | koff [6] | kon [6] | Kd [7] | koff [7] | kon [7] | Kd [8] | koff [8] | kon [8] | Kd [9] | koff [9] | kon [9] | Binder
59.9 nM | 0.37 nM | 0.99 nM | < 5 nM | 2.18 nM |  |  |  |  |  |  |  |  |  |  |  |  |  |  |  | D11 anti-Gal-3 monoclonal antibody (hIgG1 format, LALA) (antibody, V domains shown, from scFv D11 (HuscI library, human framework 13R4); human IgG1 heavy-chain constant region, engineered with the double LALA mutation in the Fc region; IgG1 with LALA; also called D11 mAb; source: CHO-K1 cells (Evitria), transfected, purified (protein A, MabSelect SuRe)) VH: EVQLVESGGSLVKPGGSLRLSCAASGFTFSNYNMNWVRQAPGKGLEWISSIYGSSRYIYYADFVKGRFTISRDNAKNSLYLQMNSLRAEDTAVYYCVRSSYGGMDVWGRGTLVTVSS VL: QSVLTQPASVSGSPGQSITISCAGTSSDVGGSYNVAWYQQHPGKAPKLMIYYDSYRPSGVSNRFSGSKSGNTASLTISGLQAEDEADYYCSSYTGYSTRVFGGGTKLEIK
 |  |  |  |  | 24.7 nM | 0.0235 s⁻¹ | 948000 M⁻¹ s⁻¹ | 14.9 nM | 0.0247 s⁻¹ | 1.66e+06 M⁻¹ s⁻¹ | 2.8 nM | 0.00178 s⁻¹ | 635000 M⁻¹ s⁻¹ | 8.55 nM | 0.018 s⁻¹ | 2.11e+06 M⁻¹ s⁻¹ | 26.4 nM | 0.0428 s⁻¹ | 1.62e+06 M⁻¹ s⁻¹ | D11 anti-Gal-3 monoclonal antibody (antibody, V domains shown, human IgG1, LALA; also called D11 mAb; source: CHO-K1 cells (Evitria), purified (protein A, MabSelect SuRe)) VH: EVQLVESGGSLVKPGGSLRLSCAASGFTFSNYNMNWVRQAPGKGLEWISSIYGSSRYIYYADFVKGRFTISRDNAKNSLYLQMNSLRAEDTAVYYCVRSSYGGMDVWGRGTLVTVSS VL: QSVLTQPASVSGSPGQSITISCAGTSSDVGGSYNVAWYQQHPGKAPKLMIYYDSYRPSGVSNRFSGSKSGNTASLTISGLQAEDEADYYCSSYTGYSTRVFGGGTKLEIK
90.6 nM | 0.07 nM | 0.3 nM | < 5 nM | 1.5 nM |  |  |  |  |  |  |  |  |  |  |  |  |  |  |  | E07 anti-Gal-3 monoclonal antibody (hIgG1 format, LALA) (antibody, V domains shown, from scFv E07 (HuscI library, human framework 13R4); human IgG1 heavy-chain constant region, engineered with the double LALA mutation in the Fc region; IgG1 with LALA; also called E07 mAb; source: CHO-K1 cells (Evitria), transfected, purified (protein A, MabSelect SuRe)) VH: EVQLVESGGSLVKPGGSLRLSCAASGFTFSNYNMNWVRQAPGKGLEWISNIYGSSRYIYYADFVKGRFTISRDNAKNSLYLQMNSLRAEDTAVYYCVRSYYGGMDVWGRGTLVTVSS VL: QSVLTQPASVSGSPGQSITISCAGTSSDVGGYYSVSWYQQHPGKAPKLMIYYDSNRPSGVSNRFSGSKSGNTASLTISGLQAEDEADYYCSSYTGYSTRVFGGGTKLEIK
 |  |  |  |  | 21.5 nM | 0.016 s⁻¹ | 746000 M⁻¹ s⁻¹ | 9 nM | 0.0292 s⁻¹ | 3.24e+06 M⁻¹ s⁻¹ | 4.14 nM | 0.00407 s⁻¹ | 983000 M⁻¹ s⁻¹ | 15 nM | 0.0497 s⁻¹ | 3.31e+06 M⁻¹ s⁻¹ | 14.4 nM | 0.0377 s⁻¹ | 2.61e+06 M⁻¹ s⁻¹ | E07 anti-Gal-3 monoclonal antibody (antibody, V domains shown, human IgG1, LALA; also called E07 mAb; source: CHO-K1 cells (Evitria), purified (protein A, MabSelect SuRe)) VH: EVQLVESGGSLVKPGGSLRLSCAASGFTFSNYNMNWVRQAPGKGLEWISNIYGSSRYIYYADFVKGRFTISRDNAKNSLYLQMNSLRAEDTAVYYCVRSYYGGMDVWGRGTLVTVSS VL: QSVLTQPASVSGSPGQSITISCAGTSSDVGGYYSVSWYQQHPGKAPKLMIYYDSNRPSGVSNRFSGSKSGNTASLTISGLQAEDEADYYCSSYTGYSTRVFGGGTKLEIK
